In patent US20220372138A1 (IOMX THERAPEUTICS, published 2022):

Experiments:
[1] = molecular target: T1, ECD of murine IGSF11, recombinant biotinylated (mouse, UniProt P0C673 23-240); assay: ELISA RFU 0.1-0.5
T1 construct: whole entry named; also called Mouse IGSF11
T1 sequence: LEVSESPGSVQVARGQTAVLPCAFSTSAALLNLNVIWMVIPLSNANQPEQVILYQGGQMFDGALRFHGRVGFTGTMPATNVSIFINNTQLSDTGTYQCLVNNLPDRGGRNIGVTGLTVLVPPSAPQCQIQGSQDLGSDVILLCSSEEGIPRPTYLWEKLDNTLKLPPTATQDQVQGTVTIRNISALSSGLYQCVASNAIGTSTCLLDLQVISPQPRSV

[2] = molecular target: T2, extracellular domain (ECD) of human IGSF11 (VSIG3), recombinant (human, UniProt Q5DX21 23-241); assay: ELISA RFU 0.1-0.5
T2 construct: biotinylated where captured on streptavidin; tags of the reagent not always stated; also called IGSF11 (ECD domain); ECD-IGSF11
T2 sequence: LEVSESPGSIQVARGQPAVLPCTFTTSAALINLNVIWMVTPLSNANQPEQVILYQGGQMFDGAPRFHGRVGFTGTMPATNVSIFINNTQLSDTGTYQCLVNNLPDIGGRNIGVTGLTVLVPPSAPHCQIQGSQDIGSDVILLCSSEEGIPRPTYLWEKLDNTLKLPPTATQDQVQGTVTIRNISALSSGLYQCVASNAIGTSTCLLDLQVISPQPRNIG

[3] = molecular target: T1, ECD of murine IGSF11, recombinant …; assay: Fab ELISA
Procedure: (§1) In order to identify IGSF11-specific binding ABPs, monoclonal Fabs expressed from E. coli were generated from the enriched set of anti-IGFS11 antibody-expressing phage. After bacterial lysis, the Fabs were tested for their binding properties and cross-reactivity profile on recombinant ECD-IGSF11 (human, mouse and cynomolgus monkey) by standard ELISA. Briefly, biotinylated recombinant ECD-IGSF11 from human, mouse, or cynomolgus monkey were immobilized at 2 ug/mL on a streptavidin-coated 384-well Maxisorp plate. The surface was blocked with 2% (w/v) skim milk powder in PBST. After three wash cycles with PBST, a bacterial lysate of each of the anti-IGSF11 Fabs in 2% (w/v) skim milk powder was applied to the immobilized IGSF11 and incubated for 1 h. After removing all unbound Fab by 3 wash cycles with PBST, bound Fab antibodies were detected with a goat anti-human Fab antibody conjugated with horseradish peroxidase. After three wash cycles with PBST the ELISA was developed with TMB substrate.

Streptavidin = Streptavidin (UniProt P22629 37-163, limits assumed); assay: Fab ELISA
Chain of Streptavidin (P22629 37-163 limits assumed): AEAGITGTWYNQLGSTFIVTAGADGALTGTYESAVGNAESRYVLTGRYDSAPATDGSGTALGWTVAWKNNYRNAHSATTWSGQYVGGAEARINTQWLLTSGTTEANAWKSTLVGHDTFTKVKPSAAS
Procedure: as §1

[4] = molecular target: T3, IgC2 domain of human IGSF11 fused to murine IgG2a Fc (human, UniProt Q5DX21 137-241); assay: IgG ELISA;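 note: ELISA binding of IgG antibodies to plate-coated IGSF11 Fc-fusion proteins (full-length ECD, IgV or IgC2 domain), detected via HRP-labelled anti-human IgG with TMB development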
T3 construct: not shown: murine IgG2a Fc-region
T3 sequence: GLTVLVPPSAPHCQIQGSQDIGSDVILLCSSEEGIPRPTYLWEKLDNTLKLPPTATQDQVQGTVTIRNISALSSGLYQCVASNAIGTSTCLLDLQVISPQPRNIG

[5] = molecular target: T4, full-length ECD of human IGSF11 fused to murine Fc (human, UniProt Q5DX21 23-241); assay: IgG ELISA;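 note: ELISA binding of IgG antibodies to plate-coated IGSF11 Fc-fusion proteins (full-length ECD, IgV or IgC2 domain), detected via HRP-labelled anti-human IgG with TMB development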
T4 construct: also called Fc-fusion IGSF11 ECD; not shown: murine Fc
T4 sequence: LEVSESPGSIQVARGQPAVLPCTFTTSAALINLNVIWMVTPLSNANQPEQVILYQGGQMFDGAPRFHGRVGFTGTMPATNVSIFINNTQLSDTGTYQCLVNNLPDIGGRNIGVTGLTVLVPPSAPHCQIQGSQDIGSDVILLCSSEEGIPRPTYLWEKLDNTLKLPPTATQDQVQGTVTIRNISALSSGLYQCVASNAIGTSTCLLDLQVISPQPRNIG

Row | Binder | ELISA binding signal (RFU) [1] [rfu] | ELISA binding signal (RFU) [2] [rfu] | A450 [3] | further results
1 | A-032 (scFv format) (scFv, V domains shown) VH: QVQLVQSGAEVKKPGASVKVSCKASGYTFTGYYMHWVRQAPGQGLEWMGWMNPNSGNTGYAQKFQGRVTMTRNTSISTAYMELSSLRSEDTAVYYCARGGQQQLVLDDYWGQGTLVTVSS VL: not shown | 0.1 to 0.5 | 0.1 to 0.5 |  | 
2 | A-030 (scFv format) (scFv, V domains shown, scFv) VH: QVQLVQSGAEVKKPGASVKVSCKASGYTFTGYYMHWVRQAPGQGLEWMGWINPNSGNTGYAQKFQGRVTMTRNTSISTAYMELSSLRSEDTAVYYCARGGQQQLVLDDYWGQGTLVTVSS VL: DIQLTQSPSTLSASVGDRVTITCRASQSIGGWLAWYQHKPGKAPKLLIYAASSLQSGVPSRFSGSGSGTDFTLTISSLQPEDFATYYCRQSYSTPPTFGQGTKVEIK | 0.1 to 0.5 | 0.1 to 0.5 |  | 
3 | A-037 (scFv format) (scFv, V domains shown, scFv) VH: QVQLVQSGAEVKKPGASVKVSCKASGYTFTGYYMHWVRQAPGQGLEWMGWINPNSGNTGYAQKFQGRVTMTRNTSISTAYMELSSLRSEDTAVYYCARGGQQQLVLDDYWGQGTLVTVSS VL: NFMLTQPHSVSESPGKTVTISCTGSSGSIASNYVQWYQQRPGSAPTTVIYEDNQRPSGVPDRFSGSIDSSSNSASLTISGLKTEDEADYYCQSYDSSNQRVFGGGTKLTVL | 0.1 to 0.5 | 0.1 to 0.5 |  | 
4 | A-036 (scFv format) (scFv, V domains shown, scFv) VH: QVQLVQSGAEVKKPGASVKVSCKASGYTFTGYYMHWVRQAPGQGLEWMGWINPNSGGTNYAQKFQGRVTMTRNTSISTAYMELSSLRSEDTAVYYCARGGQQQLVLDDYWGQGTLVTVSS VL: not shown | 0.1 to 0.5 | 0.1 to 0.5 |  | 
5 | A-029 (scFv format) (scFv, V domains shown, scFv) VH: QVQLVQSGAEVKKPGSSVKVSCKASGGTFSSYAISWVRQAPGQGLEWMGGIIPIFGTANYAQKFQGRVTITADESTGTAYMELSSLRSEDTAVYYCARSYYYYYGMDVWGQGTTVTVSS VL: not shown | 0.1 to 0.5 | 0.1 to 0.5 |  | 
6 | C-017 (Fab format) (Fab, V domains shown, Fab from E. coli lysate) VH: not shown VL: DIQMTQSPSSLSASVGDRVTITCRASQSISSYLNWYQQKPGKAPKLLIYAASSLQSGVPSRFSGSGSGTDFTLTISSLQPEDFATYYCQQHRYIPPWTFGQGTKVEIK |  |  | < 1 | 
7 | A-003 (scFv format) (scFv, V domains shown, scFv) VH: VQLVQSGAEVKKPGSSVKVSCKASGGTFSSYAISWVRQAPGQGLEWMGGIIPIFGTANYAQKFQGRVTITADESTSTAYMELSSLRSEDTAVYYCASPRIQLWAAGGFDYWGQGTLVTVSS VL: QSALTQPASVSGSPGQSITISCTGTSSDVGGYNLVSWYQQHPGKAPKLMIYDVSNRPSGVSNRFSGSKSGNTASLTISGLQAEDEADYYCSSFTTSTTLVFGGGTKLTVL | 0.1 to 0.5 | 0.1 to 0.5 |  | 
8 | C-020 (Fab format) (Fab, V domains shown, Fab from E. coli lysate) VH: not shown VL: SYELTQPPSVSVSPGQTASITCSGDKLGDKYASWYQQKPGQSPVLVIYQDSKRPSGIPERFSGSNSGNTATLTISGTQAEDEADYYCLSYLARSGSVVFGGGTKLTVL |  |  | < 1 | 
9 | C-015 (Fab format) (Fab, V domains shown, Fab from E. coli lysate) VH: not shown VL: SYELTQPPSVSVSPGQTASITCSGDKLGDKYASWYQQKPGQSPVLVIYQDSKRPSGIPERFSGSNSGNTATLTISGTQAEDEADYYCSSTGTAHTLAVFGGGTKLTVL |  |  | < 1 | A450 (Streptavidin): < 0.1
10 | C-015 (IgG1 format) (antibody, V domains shown) VH: not shown VL: SYELTQPPSVSVSPGQTASITCSGDKLGDKYASWYQQKPGQSPVLVIYQDSKRPSGIPERFSGSNSGNTATLTISGTQAEDEADYYCSSTGTAHTLAVFGGGTKLTVL |  |  |  | EC50 [4]: 1 to 20 nM; EC50 [5]: 20 to 100 nM
11 | C-018 (IgG1 format) (antibody, V domains shown) VH: not shown VL: SYELTQPPSVSVSPGQTASITCSGDKLGDKYASWYQQKPGQSPVLVIYQDSKRPSGIPERFSGSNSGNTATLTISGTQAEDEADYYCQAWSTSTHSWVFGGGTKLTVL |  |  |  | EC50 [4]: < 1 nM; EC50 [5]: 1 to 20 nM
12 | C-024 (Fab format) (Fab, V domains shown, Fab from E. coli lysate) VH: not shown VL: SYELTQPPSVSVSPGQTASITCSGDKLGDKYASWYQQKPGQSPVLVIYQDSKRPSGIPERFSGSNSGNTATLTISGTQAEDEADYYCLASHRLTLNYVFGGGTKLTVL |  |  | < 1 | 
13 | C-023 (Fab format) (Fab, V domains shown, Fab from E. coli lysate) VH: not shown VL: SYELTQPPSVSVSPGQTASITCSGDKLGDKYASWYQQKPGQSPVLVIYQDSKRPSGIPERFSGSNSGNTATLTISGTQAEDEADYYCHTWTHHSLAVVFGGGTKLTVL |  |  | < 1 | A450 (Streptavidin): < 0.1
14 | A-033 (scFv format) (scFv, V domains shown, scFv) VH: QVQLVQSGAEVKKPGASVKVSCKASGYTFTSYGISWVRQAPGQGLEWMGWISAYNGNTNYAQKLQGRVTMTTDTSTSTAYMELRSLRSDDTAVYYCARDHSIVGATTFDYWGQGTLVTVSS VL: not shown | 0.1 to 0.5 | 0.1 to 0.5 |  | 
15 | A-031 (scFv format) (scFv, V domains shown, scFv) VH: not shown VL: EIVLTQSPGTVSLSPGERATLSCRASQSVPKNYLAWFQQKPGQAPRLVIHTASSRAPGIPDRFTGSGSGTDFTLTISRLEPEDFAVYYCQQYGTSPNTFGQGTKLDIK | 0.1 to 0.5 | 0.1 to 0.5 |  | 
16 | C-021 (Fab format) (Fab, V domains shown, Fab from E. coli lysate) VH: not shown VL: DIQMTQSPSSLSASVGDRVTITCRASQSISSYLNWYQQKPGKAPKLLIYAASSLQSGVPSRFSGSGSGTDFTLTISSLQPEDFATYYCQQWSGLPLTFGQGTKVEIK |  |  | < 1 | A450 (Streptavidin): < 0.1
17 | C-022 (IgG1 format) (antibody, V domains shown) VH: EVQLLESGGGLVQPGGSLRLSCAASGFTFSSYAMSWVRQAPGKGLEWVSAISGSGGSTYYADSVKGRFTISRDNSKNTLYLQMNSLRAEDTAAYYCARMAAGASWGTFDYWSQGTLVTVSS VL: DIQMTQSPSSLSASVGDRVTITCRASQSISSYLNWYQQKPGKAPKLLIYAASSLQSGVPSRFSGSGSGTDFTLTISSLQPEDFATYYCQQRSGSPLTFGQGTKVEIK |  |  |  | EC50 [4]: 1 to 20 nM; EC50 [5]: 1 to 20 nM
18 | A-027 (scFv format) (scFv, V domains shown, scFv) VH: QVQLVQSGAEVKKPGSSVKVSCKASGGTFSSYAISWVRQAPGQGLEWMGGIIPIFGTANYAQKFQGRVTITADKSTSTAYMELSSLRSEDTAVYYCARARGSTWGYFDYWGQGTLVTVSS VL: EIVLTQSPASLSLSPGERVTLSCRASQSVSNYLAWYQQKPGQAPRLLIYDASNRATGIPARFSGSGSGTDFTLTISSLEPEDFAVYYCQQRDNWPLTFGGGTKVEIK | 0.1 to 0.5 | 0.1 to 0.5 |  | 
19 | A-025 (scFv format) (scFv, V domains shown, scFv) VH: QVQLVQSGAEVKKPGSSVKVSCKASGGTFSSYAISWVRQAPGQGLEWMGGIIPIFGTANYAQKFQGRVTITADESTSTAYMELTSLRSEDTAVYYCARGGWLRQNWFDPWGQGTLVTVSS VL: SSELTQDPAVSVALGQTVRITCQGDSLRSYYASWYQQKPGQAPVLVIYGKNNRPSGIPDRFSGSSSGNTASLTITGAQAEDEADYYCNSRDSSGNHPRVFGGGTKLTVL | 0.1 to 0.5 | 0.1 to 0.5 |  | 
20 | C-016 (Fab format) (Fab, V domains shown, Fab from E. coli lysate) VH: not shown VL: ASVLTQPPSVSAAPGQKVTISCSGSSSNIGNNYVSWYQQLPGTAPKLLIYDNNKRPSGIPDRFSGSKSGTSATLGITGLQAEDEADYYCHLYTEAESHWVFGGGTKLTVL |  |  | < 1 | A450 (Streptavidin): < 0.1
21 | C-002 (Fab format) (Fab, V domains shown, Fab from E. coli lysate) VH: not shown VL: ASVLTQPPSVSAAPGQKVTISCSGSSSNIGNNYVSWYQQLPGTAPKLLIYDNNKRPSGIPDRFSGSKSGTSATLGITGLQAEDEADYYCLSYTTSEHHLVFGGGTKLTVL |  |  | < 1 | A450 (Streptavidin): < 0.1
22 | A-028 (scFv format) (scFv, V domains shown, scFv) VH: QVQLVQSGAEVKKPGSSVKVSCKASGGTFSSYAISWVRQAPGQGLEWMGGIIPIFGTANYAQKFQGRVTITADESTSTAYMELSSLRSEDTAVYYCARVGVEYQLLWYFDYWGQGTLVTVSS VL: DIQMTQSPSSLSASVGDRVTLTCRTSQTISNYLNWYQQKPGKAPKLLVYAASNLQSWVPSRFSGSGSGTDFTLTISSLQPEDFATYYCQQSYNASFGGGTKVEFK | 0.1 to 0.5 | 0.1 to 0.5 |  | 
